Laboratory results as given in patent US20260248917A1, “BICYCLIC PEPTIDE LIGANDS SPECIFIC FOR EPHA2 AND USES THEREOF” (BicycleTx Limited, priority 2019, published 2026).

Experiments:
Type in all cases: physicochemical
[1] = Appearance of solution (bulk or reconstituted), visual; conditions: 4 mg/mL bulk solution
Experimental: (§1) The bulk solution appearance, pH, density and BT5528 assay/related substances were recorded. Additional samples were subjected to three freeze (−20° C.)/thaw cycles, assessing appearance, pH, UPLC and sub-visible particulates (MFI) after each cycle.
(§2) The lyophilized product was placed on stability and tested for 1 month (according to Table 1-9) at accelerated storage of 25° C./60% RH. The lyophilized product was assessed by means of appearance, moisture content, and assay and related substances by UPLC. The reconstituted product was assessed on the basis of reconstitution time, solution appearance, pH and sub-visible particulates (T=0 only).

[2] = pH of bulk or reconstituted solution; conditions: 4 mg/mL bulk solution
Experimental: as §1, §2

[3] = Reconstitution time of lyophilized product; conditions: 21.2 mg/vial reconstituted with 5.3 mL 0.02 M HCl, versus 0.01 M HCl
Experimental: as §2
Formulations 1 to 4 had significant adsorptive properties with the drug product adsorbing onto the glass vial above and in the reconstituted solution. Formulation 5 (2 mg/mL BT5528) produced the best results with drug product adsorbing only slightly above the solution and no adsorption noted within the solution. Variability in reconstitution time derives from the analytical procedure deviating throughout the testing of formulation 1. This occurred due to the severe adsorptive nature of formulation 1. For the 4 mg/mL solution agitation occurred immediately after addition of reconstitution medium producing a severe adsorptive spread above the solution. A settle period before agitation was performed for the 2 mg/mL producing a better reconstitution performance although adsorption was still noted. For the 1.3 mg/mL solution a settle period of 5 minutes was performed to minimize the agitation required. […]

[4] = Density of final solution; conditions: filtered 4 mg/mL solution
Experimental: as §1
The pH of the solution was measured and adjusted to target (pH 6.8-7.2). The pH was 7.79 pH after the addition of API and was adjusted to 7.19 pH using 0.1 M HCl solution. The solution was transferred to a 20 mL volumetric flask and make to final volume with WFI. The solution was filtered through a single 0.22 μm, PES membrane syringe filter. The final solution was a clear, colourless solution which was free from any visible particulates. The density of the final solution was measured, 1.025 g/cm^3. A pre- and post-filtration sample was passed to analytical for HPLC analysis. The remaining bulk solution was filled in 2 mL volumes into 2 mL glass vials and subjected to three, freeze/thaw cycles.

Substance: BT5528: Bicycle toxin conjugate; TATA scaffold; peptide ligand (β-Ala)-Sar10-A(HArg)D-Ci(HyP)LVNPLCiiLHP(D-Asp)W(HArg)Ciii (SEQ ID NO: 1)
- Appearance ([1]; Freeze Thaw Cycle 1 (−20° C.)): Clear, colourless solution free
- Appearance ([1]; Freeze Thaw Cycle 2): Clear, colourless solution free
- Appearance ([1]; Freeze Thaw Cycle 3): Clear, colourless solution free
- Appearance ([1]; Post Filtration): Clear, colourless solution free
- Appearance ([1]; Pre Filtration): Clear, colourless solution free
- pH ([2]; Freeze Thaw Cycle 1): 7.3
- pH ([2]; Freeze Thaw Cycle 2): 7.3
- pH ([2]; Freeze Thaw Cycle 3): 7.3
- pH ([2]; Pre Filtration): 7.2
- reconstitution time and appearance of the reconstituted product (oily droplet formation) [3]: improved
- density of the final solution [4]: 1.025 g/mL
